These results are taken from the RNAGym collection of RNA variant scans (doi:10.7554/elife.80360).

B1: HDV Ribozyme (parent)
chain: GGCCGGCAUGGUCCCAGCCUCCUCGCUGGCGCCGGCUGGGCAACAUUCCGAGGGGACCGUCCCCUCGGUAAUGGCGAAUGGGACCCA

Variants of B1 are the subject of this series. The series is described as follows: self-cleavage, relative activity (ratio to wild type); higher = more cleavage; co-transcriptional.
Consider GGCCGUCAUGGUCCCAGCCUCCUCGCUGGCGCCGGCUGGGCAACAUUCCGAAGGGACCGUCCCCUCGGUAAUGGCGAAUGGGACCCA, for which the self-cleavage was found to be 0.739.

As for GGCCGGCAUGGUCCCAGCCUCCUCGCUGGCGCCGGCUGGGCAACAUACCGACGGGACCGUCCCCUCGGUAAUGGCGAAUGGGACCCA, the self-cleavage was 0.978.

With GGCCGGCAUGGUCCCAGCCUCCUCGCUGGCGCCGGCUGGGCGACAAUCCGAGGGGACCGUCCCCUCGGUAAUGGCGAAUGGGACCCA, the self-cleavage amounted to 0.554.

With GGCCGGCAUGGUCCCAGGCUCCUCGCUGGCGCCGGCUGGGCAAGAUUCCGAGGGGACCGUCCCCUCGGUAAUGGCGAAUGGGACCCA, the self-cleavage was 0.0723.

On to GGCCGGCAUGGUCCCAGCCUCCUCGCUGGCGCCGGCUGGGCAACAUUACGAGGGGACCGUCCCCUCGGUUAUGGCGAAUGGGACCCA, for which the self-cleavage was found to be 0.985.

For GGCCGGUAUGGUCCCAGCCUCCUCGCUGGCGCUGGCUGGGCAACAUUCCGAGGGGACCGUCCCCUCGGUAAUGGCGAAUGGGACCCA, the self-cleavage was 0.672.

Turning to GGCCGGCAUGGUCCCAGCCUCCUCGCUGGCGCCGGCUGGGCAACAUUCCGAGGGGACCGUCCCCUCGGUAAUGGCGAAUGGUGCCCA, the self-cleavage came to 0.137.

For GUCCGGCAUGGUCCCAGCCUCCUCGCUGGCGCCGGAUGGGCAACAUUCCGAGGGGACCGUCCCCUCGGUAAUGGCGAAUGGGACCCA, the self-cleavage was found to be 0.366.

With GACCGGCAUGGUCCCAGCCUCCUCGCUGGCGCCGGCUGGGCAACAUUCCGAGGGGUCCGUCCCCUCGGUAAUGGCGAAUGGGACCCA, the self-cleavage came out at 0.115.

Regarding GGCCGGAAUGGUCCCAGCCUCCUCGCUGGCGCCGGCUGUGCAACAUUCCGAGGGGACCGUCCCCUCGGUAAUGGCGAAUGGGACCCA, the self-cleavage was 0.18.

As for GGCCGGCAUGGUCCCAGCCUCCCCGCUGGCGCCGGCUGGGCAACAUUCCGAGGGGACCGUCCCCUCGGUAAUGGCGAAGGGGACCCA, the self-cleavage is 0.883.

As to GGCAGGCAUGGUCCCAGCCUCCUCGCUGGCGCCGGCUGGGCAACAUUCCGAGGGGACCGUCCCCUCGGUAAUGGCGAAUGGGACCAA, the self-cleavage was 0.185.

On to GGCCGGCUUGGUCGCAGCCUCCUCGCUGGCGCCGGCUGGGCAACAUUCCGAGGGGACCGUCCCCUCGGUAAUGGCGAAUGGGACCCA, for which the self-cleavage came out at 0.237.

For GGCCGGCAUGGUCCCAGCCUCCUCGCUGGCGCCGGCUGGGCAGCAUUCCGGGGGGACCGUCCCCUCGGUAAUGGCGAAUGGGACCCA, the self-cleavage is 0.26.

Take GGCCGGCAAGGUCCCAGCCUCCUCGCUGGCGCCGGCUGGGCAACAUGCCGAGGGGACCGUCCCCUCGGUAAUGGCGAAUGGGACCCA: the self-cleavage worked out at 0.772.

For GGCCGGCAUGGUCCCAGCCUCCUCGCUGGCGCCGACUGGGCAACAUUCCGAGGAGACCGUCCCCUCGGUAAUGGCGAAUGGGACCCA, the self-cleavage is 0.349.

As for GGCCGGGAUGGUCCCAGCCUCCUCGCUGGCGCCGGCUGGGCAACAUUCCGAGGGGACCGUCCCCUCGGUAAUGGCGAAUGGCACCCA, the self-cleavage was 0.

GGCCGGCAUGGUCCCAGCCUCCUCGCUGGCGCCGGCUGGGCAACAUUCCGAGGGGACCGUCCCCUCCGUAAUGGCGAAUGGGCCCCA: the self-cleavage stood at 0.293.

Consider GGCCGGCAUGGUCCCAUCCUCCUCGCUGGCGCCGGUUGGGCAACAUUCCGAGGGGACCGUCCCCUCGGUAAUGGCGAAUGGGACCCA, for which the self-cleavage was found to be 0.166.

For the variant GGCCGGCAUGGUCCCUGCCUCCUCGCUGGUGCCGGCUGGGCAACAUUCCGAGGGGACCGUCCCCUCGGUAAUGGCGAAUGGGACCCA, the self-cleavage was 0.68.

For the variant GGCCGGCAUGGUCCCAGCCUCUUCGCUGGCGCCGGCUGGGCAUCAUUCCGAGGGGACCGUCCCCUCGGUAAUGGCGAAUGGGACCCA, the self-cleavage amounted to 0.0831.

With GGCCGGGAUGGUCCCAGCCUCCUCGCUGGCGCCGGCUGGACAACAUUCCGAGGGGACCGUCCCCUCGGUAAUGGCGAAUGGGACCCA, the self-cleavage was 0.0536.

GGCCGGCAUGGUCCCAGCCUCCUCGCUGGCGCCGGCUGGGCAACAUUCCGCGGGGACCGUCCCCUCGGUCAUGGCGAAUGGGACCCA: the self-cleavage is 1.03.

GGCCAGCAUGGUCCCAGCCUCCUCGCUGGCGCCGGCUGGGCAACAUUCCGAGGGGACCGUCCCCUCGGUAAUGGCGAAUGAGACCCA: the self-cleavage was determined as 0.0978.

As for GGCCGGCAUGGUCCCAGCCUCCUCGCCGGCGCCGGCUGGGCAACAUUCCGAGGGGACCGUGCCCUCGGUAAUGGCGAAUGGGACCCA, the self-cleavage is 0.795.

Take GGCCGGCAUGGUCCCAGCCUCCUCGCUGGCGCCGGCUGGGCAACAUUCCGAGGGGACCCUCCCCUCGGUAAUGGCGAAUAGGACCCA: the self-cleavage was 0.409.

With GGCCGGCAUGGUCCCAGACUCCUCGCUGGCGCCGGCUGGGCAACAUUCCGAGGGGACCGUCACCUCGGUAAUGGCGAAUGGGACCCA, the self-cleavage came to 0.102.

As for GGCCGGCAUGGUCCCAGCCUCCUCGCUGGCGCCGGCUGGGGAACAUUCCAAGGGGACCGUCCCCUCGGUAAUGGCGAAUGGGACCCA, the self-cleavage turned out to be 0.911.

For GGCCGGCAUGGUCCCAGCCUCCUCGCUGGCGCCGGCUGGGCAAUAUUCCGAGGGGACCGUCCCCUCGGUAAUGGCGCAUGGGACCCA, the self-cleavage was 0.277.

As for GGCCGGCAUGGUAGCAGCCUCCUCGCUGGCGCCGGCUGGGCAACAUUCCGAGGGGACCGUCCCCUCGGUAAUGGCGAAUGGGACCCA, the self-cleavage came out at 0.0978.

On to GGCGGCCAUGGUCCCAGCCUCCUCGCUGGCGCCGGCUGGGCAACAUUCCGAGGGGACCGUCCCCUCGGUAAUGGCGAAUGGGACCCA, for which the self-cleavage is 0.214.

Regarding GGUCGGCAUGGUCCCAGCCUCCUCGCUGGCGCCGGCUGUGCAACAUUCCGAGGGGACCGUCCCCUCGGUAAUGGCGAAUGGGACCCA, the self-cleavage worked out at 0.385.
